Reference: the supplement of paper PMC10724198
± gives the standard deviation of the averaged measurements.

How the values were obtained:
[1] = tested on: Saccharomyces cerevisiae; experiment: protein stability index of tFT-peptide fusion (C-terminal peptide) (PSI (0-1 scale)); higher = more stable (slower turnover); conditions: genetic background: wild type; temperature: 30 C
[2] = tested on: Saccharomyces cerevisiae; experiment: as above
Method: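 MPS profiling in S. cerevisiae of the tFT-X12 degron library: putative degron peptides plus stable controls, 12 aa, fused to the C-terminus of a sfGFP-mCherry timer. Cells are FACS-sorted into 8 mCherry/sfGFP bins and deep-sequenced. PSI runs from 0 (unstable) to 1 (stable). Backgrounds are wild type, das1Δ and doa10Δ at 30 °C, and wild type, das1Δ, cdc34-1 and cdc53-1 at 37 °C; 2-3 technical replicates each.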

[3] = genetic background: cdc34-1, temperature: 37 C
[4] = genetic background: cdc53-1, temperature: 37 C
[5] = genetic background: das1 deletion, temperature: 30 C
[6] = genetic background: das1 deletion, temperature: 37 C
[7] = genetic background: doa10 deletion, temperature: 30 C
[8] = genetic background: wild type, temperature: 30 C
[9] = genetic background: wild type, temperature: 37 C
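Note: PSI is a weighted mean of sequencing reads over stability bins, variants kept only with over 10 reads, mCherry proximal and sfGFP distal, peptide attached via GGGS linker.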

Sequence | protein stability index [1] | protein stability index [2, 3] | protein stability index [2, 4] | protein stability index [2, 5] | protein stability index [2, 6] | protein stability index [2, 7] | protein stability index [2, 8] | protein stability index [2, 9]
IGILVTAVPVFD | 0.451 ± 0.012 | 0.507 ± 0.057 | 0.518 ± 0.0058 | 0.386 ± 0.042 | 0.5522 ± 0.0021 | 0.343 ± 0.013 | 0.382 ± 0.021 | 0.529 ± 0.011
GSDGVGGTVLYA | 0.687 ± 0.037 | 0.685 ± 0.061 | 0.755 ± 0.014 | 0.634 ± 0.021 | 0.729 ± 0.015 | 0.638 ± 0.013 | 0.666 ± 0.023 | 0.728 ± 0.035
YCDPSLIWLYLM | 0.249 ± 0.02 | 0.57 ± 0.012 | 0.714 ± 0.018 | 0.61 ± 0.021 | 0.727 ± 0.0077 | 0.1768 ± 0.0011 | 0.18 ± 0.012 | 0.275 ± 0.031
PRTTHTPLLIAS | 0.296 ± 0.021 | 0.566 ± 0.046 | 0.6584 ± 0.003 | 0.54 ± 0.012 | 0.662 ± 0.03 | 0.177 ± 0.012 | 0.205 ± 0.025 | 0.296 ± 0.046
WGAHRVRVSRIL | 0.509 ± 0.016 | 0.686 ± 0.034 | 0.768 ± 0.021 | 0.656 ± 0.028 | 0.742 ± 0.0081 | 0.295 ± 0.003 | 0.326 ± 0.043 | 0.516 ± 0.0052
RGGVRGVRSGRG |  | 0.588 ± 0.016 | 0.716 ± 0.047 | 0.478 ± 0.014 | 0.565 ± 0.026 | 0.4741 ± 0.0046 | 0.485 ± 0.02 | 0.631 ± 0.045
SLTHTPLGVTRT |  | 0.657 ± 0.033 | 0.748 ± 0.012 | 0.6409 ± 0.0026 | 0.72832 ± 0.00066 | 0.635 ± 0.013 | 0.642 ± 0.011 | 0.704 ± 0.0086
LSLLILFVLLSF |  | 0.444 ± 0.014 | 0.476 ± 0.016 | 0.355 ± 0.042 | 0.449 ± 0.023 | 0.3914 ± 0.00083 | 0.385 ± 0.024 | 0.463 ± 0.039
VLRFVYDLVSAL |  | 0.559 ± 0.036 | 0.599 ± 0.011 | 0.531 ± 0.029 | 0.643 ± 0.036 | 0.334 ± 0.0067 | 0.342 ± 0.021 | 0.435 ± 0.015
VRWALLGVVVEG |  | 0.388 ± 0.014 | 0.398 ± 0.0062 | 0.293 ± 0.029 | 0.4742 ± 0.00066 | 0.246 ± 0.0085 | 0.286 ± 0.027 | 0.428 ± 0.013
FHSALIAIAAYV |  | 0.135 ± 0.012 | 0.128 ± 0.032 | 0.201 ± 0.029 | 0.2396 ± 0.00086 | 0.162 ± 0.024 | 0.202 ± 0.016 | 0.217 ± 0.0052
PPCSLLPPPPAP |  | 0.624 ± 0.049 | 0.7196 ± 0.0057 | 0.682 ± 0.043 | 0.713 ± 0.0088 | 0.715 ± 0.023 | 0.674 ± 0.056 | 0.687 ± 0.024
APPHPPPATFLS |  | 0.643 ± 0.014 | 0.732 ± 0.022 | 0.685 ± 0.019 | 0.721 ± 0.0092 | 0.326 ± 0.032 | 0.357 ± 0.026 | 0.574 ± 0.012
TGGGGRVSLGVG |  | 0.359 ± 0.066 | 0.416 ± 0.0099 | 0.356 ± 0.013 | 0.42 ± 0.0044 | 0.377 ± 0.0077 | 0.359 ± 0.016 | 0.413 ± 0.0088
APLPPPPASVPP |  | 0.656 ± 0.076 | 0.7014 ± 0.0041 | 0.672 ± 0.015 | 0.711 ± 0.014 | 0.65 ± 0.014 | 0.649 ± 0.03 | 0.691 ± 0.0089
TLDWKFGWGGIG |  | 0.603 ± 0.011 | 0.579 ± 0.016 | 0.566 ± 0.024 | 0.6477 ± 0.0045 | 0.5685 ± 0.002 | 0.574 ± 0.021 | 0.645 ± 0.018
KEHTNKDEMPKE | 0.705 ± 0.074 |  |  |  |  |  |  | 
LALYPYIPDSPF | 0.636 ± 0.048 |  |  |  |  |  |  | 
WRLVREGRMRGG | 0.742 ± 0.031 |  |  |  |  |  |  | 
ESQYAIFGHDIW | 0.709 ± 0.011 |  |  |  |  |  |  | 

Sequence | protein stability index [1] | protein stability index [2, 3] | protein stability index [2, 4] | protein stability index [2, 5] | protein stability index [2, 6] | protein stability index [2, 7] | protein stability index [2, 8] | protein stability index [2, 9]
VPRRSLLSPPPP | 0.668 ± 0.023 |  |  |  |  |  |  | 
PSWLLFGVHGGW | 0.71 ± 0.056 |  |  |  |  |  |  | 
IRPDLWYGLAVV | 0.59 ± 0.023 |  |  |  |  |  |  | 
LLWPVFQCLPLL | 0.729 ± 0.045 |  |  |  |  |  |  | 
PVDFQSQGECEL | 0.695 ± 0.0089 |  |  |  |  |  |  | 
GPGGPGGGWPLQ | 0.687 ± 0.024 |  |  |  |  |  |  | 
SNHIAPAFKIKQ | 0.678 ± 0.0085 |  |  |  |  |  |  | 
WWGSGGREPGGS | 0.739 ± 0.05 |  |  |  |  |  |  | 
GWRHFVLFWCGL | 0.752 ± 0.022 |  |  |  |  |  |  | 
VRPEPSTGARGA | 0.669 ± 0.049 |  |  |  |  |  |  | 
HKNPQKEVIAKT | 0.744 ± 0.058 |  |  |  |  |  |  | 
PLLPSLPPLLAP | 0.651 ± 0.05 |  |  |  |  |  |  | 
PLSPPLLPPPPP | 0.688 ± 0.014 |  |  |  |  |  |  | 
YSQSRPYFRIPG | 0.647 ± 0.029 |  |  |  |  |  |  | 
GPNRCPGRPVTP | 0.703 ± 0.032 |  |  |  |  |  |  | 
SVGGSLGAGGGG | 0.682 ± 0.064 |  |  |  |  |  |  | 
SPQPSLPFLPPL | 0.668 ± 0.026 |  |  |  |  |  |  | 
RYLLCSSVESAV | 0.639 ± 0.028 |  |  |  |  |  |  | 
LRKGGGVGVWRG | 0.687 ± 0.012 |  |  |  |  |  |  | 
